Positions count from the first letter of the chain named.
T1: human CD32b expressed on cells (human, UniProt P31994 43-310)
T1 construct: also called SupT1-CD32b; CHO-CD32b
T1 sequence: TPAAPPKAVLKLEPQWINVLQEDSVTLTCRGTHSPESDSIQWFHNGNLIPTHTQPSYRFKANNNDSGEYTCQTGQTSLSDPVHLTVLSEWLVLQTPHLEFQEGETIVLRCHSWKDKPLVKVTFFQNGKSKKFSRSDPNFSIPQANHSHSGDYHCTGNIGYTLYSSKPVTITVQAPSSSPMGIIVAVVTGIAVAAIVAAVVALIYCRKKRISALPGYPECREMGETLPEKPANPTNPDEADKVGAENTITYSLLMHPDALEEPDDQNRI

T2: recombinant human CD32b protein, biotinylated (human, UniProt P31994 43-217)
T2 construct: also called CD32b-His; recombinant CD32b protein
T2 sequence: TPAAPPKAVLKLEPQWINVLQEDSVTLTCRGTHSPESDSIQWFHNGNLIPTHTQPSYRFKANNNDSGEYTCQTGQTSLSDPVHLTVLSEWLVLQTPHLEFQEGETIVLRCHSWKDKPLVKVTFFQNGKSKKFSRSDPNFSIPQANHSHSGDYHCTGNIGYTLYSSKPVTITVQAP

B1: DARPin 53.A8 (designed binder)
chain: DLGKKLLEATRAGQDDEVRILMANGANVNATDEEGLTPLHLAALDGHLEIVEVLLKYGADVNADDMHGPTPLHLAAYAGHLEIVEVLLKYGADVNAYDCGGHTPLHLAARLGHLEIVEVLLKYGADVNAQDKFGKTPFDLAIDNGNEDIAEVLQKAA
B2: DARPin 53.2.C8 (designed binder)
chain: DLGKKLLEAARAGQDDAVRILMANGADANAYDHMGETPLHLAAMEGHLEIVEVLLKHGADVNADDWDGQTPLHLAAHWGHLEIVEVLLKYGADVKEQDVVGYTPLHLAAWIGHLEIVEVLLKNGADVNAQDKFGKTPFDLAIDNGNEDIAEVLQKAA
B3: DARPin 53.C1 (designed binder)
chain: DLGKKLLEAARVGQDDEVRILMANGADVNATDNEGQTPLHLAAMWGHLEIVEVQLKHGADVNASDTFGSTPLHLAARFGHLEIVEVLLKYGADVNAADTEGFTPLHLAAIDGHLEIVEVLLKHGADVNAQDKFGKTPFDLAIDNGNEDIAEVLQKAA
B4: DARPin 53.D11 (designed binder)
chain: DLGKKLLEAARAGQDDEVRILMANGADVNATDITGATPLHLAAMWGHLEIVEVLLKYGADVNAQDYEGYTTLHLAAMWGHLEIVEVLLKYGADVNAHDVAGHTPLHLATHFGHLEIVEVLLKHGADVNAQDKFGKTPFDLAIDNGNEDIAEVLQKAA
B5: DARPin 53.A11 (designed binder)
chain: DLGKKLLEATRAGQDDEVRILMANGADVNATDEEGLTPLHLAALIGHLEIVEVLLKYGADVNAADMDGTTPLHLAAQEGHLEIVEVLLKYGADVNADDFWGHTPLHLAAWFGHLEIVEVLLKHGADVNAQDKFGKTPFDLAIDNGNEDIAEVLQKAA
notes: also called 53.C9; 53.F7
B6: DARPin 53.2.B6 (designed binder)
chain: B5 chain with L81Q, T136I
B7: DARPin 53.B8 (designed binder)
chain: B5 chain with A23T, A26T, L48P, G91C, H123Y
B8: DARPin 53.G7 (designed binder)
chain: B5 chain with A43V, E52D
B9: DARPin 53.2.D6 (designed binder)
chain: B5 chain with E8D, T10A, R11S
B10: DARPin 53.2.E10 (designed binder)
chain: B5 chain with A30T
B11: DARPin 53.2.H5 (designed binder)
chain: B5 chain with G58D, A109P, K122N, I149L
B12: DARPin 53.2.H4 (designed binder)
chain: B5 chain with A30T, E118D, K122A, H123N, G124V, Q130N, D131S, K132A, F133Q, G134S
B13: DARPin 53.H9 (designed binder)
chain: B5 chain with A64V, E151Q
B14: DARPin 53.E11 (designed binder)
chain: B5 chain with T10A, A59T
B15: DARPin 53.B10 (designed binder)
chain: B5 chain with H123N
B16: DARPin 53.D7 (designed binder)
chain: B5 chain with T10A, H123N
B17: DARPin 53.2.H9 (designed binder)
chain: B5 chain with A76V, H123Y, V152A
B18: DARPin 53.A10 (designed binder)
chain: DLGKKLLEAARAGQDDEVRILMSNGADVNAWDKEGVTPLHLAAVHGHLEIVEVLLKHGADVNAQDDVGMTPLHLAAHWGHLEIVEVLLKYGADVNAQDYAGMTPLHLAAFQGHLEIVEVLLKHGADVNAQDKFGKTPFDLAIDNGNEDIAQVLQKAA
B19: DARPin 53.G1 (designed binder)
chain: B18 chain with A10T, Q151E

Each binder was assayed against T1, human CD32b expressed on cells (assay: flow cytometry, crude E. coli extract on SupT1-CD32b cells).

Binder | binding result
B1 | no binding (tested: 5-25 µl of crude DARPin extracts)
B2 | no binding (tested: 5-25 µl of crude DARPin extracts)
B3 | no binding (tested: 5-25 µl of crude DARPin extracts)
B4 | no binding (tested: 5-25 µl of crude DARPin extracts)
B5 | no binding (tested: 5-25 µl of crude DARPin extracts)
B6 | no binding (tested: 5-25 µl of crude DARPin extracts)
B7 | no binding (tested: 5-25 µl of crude DARPin extracts)
B8 | no binding (tested: 5-25 µl of crude DARPin extracts)
B9 | no binding (tested: 5-25 µl of crude DARPin extracts)
B10 | no binding (tested: 5-25 µl of crude DARPin extracts)
B11 | no binding (tested: 5-25 µl of crude DARPin extracts)
B12 | no binding (tested: 5-25 µl of crude DARPin extracts)
B13 | no binding (tested: 5-25 µl of crude DARPin extracts)
B14 | no binding (tested: 5-25 µl of crude DARPin extracts)
B15 | no binding (tested: 5-25 µl of crude DARPin extracts)
B16 | no binding (tested: 5-25 µl of crude DARPin extracts)
B17 | no binding (tested: 5-25 µl of crude DARPin extracts)
B18 | no binding (tested: 5-25 µl of crude DARPin extracts)
B19 | no binding (tested: 5-25 µl of crude DARPin extracts)

These binders were tested against T3, neutravidin (UniProt P02701 25-152) (assay: SPR, Biacore T200, neutravidin NA chip).
T3 construct: also called neutravidin NA chip (Cytiva)
T3 sequence (P02701 25-152): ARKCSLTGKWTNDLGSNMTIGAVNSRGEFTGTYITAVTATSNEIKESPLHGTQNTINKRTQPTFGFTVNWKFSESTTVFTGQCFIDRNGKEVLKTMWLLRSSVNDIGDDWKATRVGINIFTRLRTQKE

Binder | binding result
B1 | no binding

What follows are binders tested against T2, recombinant human CD32b protein, … (assay: SPR, Biacore T200, biotinylated CD32b on neutravidin chip).

Binder | binding result
B1 | no binding
